Assay results published in PMC4389238, “Non-canonical active site architecture of the radical SAM thiamin pyrimidine synthase” (Nature Communications, 2015).

Key:
[1] = target: the molecule itself; experiment: crystal structure; holo CcThiC with [4Fe-4S] cluster, no substrates; anaerobic, 140 mM HEPES pH 9.2, 7.5% PEG8000; space group C2; 2.93 Å
[2] = target: the molecule itself; experiment: crystal structure; AtThiC with [4Fe-4S] cluster co-crystallised anaerobically with combinations of IRN, AIR, SAH, 5'-dAdo, L-Met, Zn or Fe; hanging drop, room temperature; space groups P3(2)21 and C2; 1.25-1.84 Å

| Protein | binding result [1] | binding result [2] |
| --- | --- | --- |
| Caulobacter crescentus ThiC, full length (enzyme, ThiC (thiamin pyrimidine synthase), Caulobacter crescentus; Holds a [4Fe-4S] cluster; also called CcThiC; holo CcThiC; not shown: His6, N-terminal, cleaved) not shown | binds | – |
| Arabidopsis thaliana ThiC, ΔN71-AtThiC (residues 1-71 removed) (enzyme, ThiC (thiamin pyrimidine synthase, HMP-P synthase), Arabidopsis thaliana; full-length protein has 644 residues; Holds a [4Fe-4S] cluster and an additional metal (Fe or Zn); The final 55 residues are not visible in the electron density.}; also called thiamin pyrimidine synthase; not shown: His6, N-terminal, cleaved) not shown | – | binds |
